Laboratory results taken from patent US20230001007A1, “Glycan-Interacting Compounds and Methods of Use” (Seagen Inc., priority 2017, published 2023).

What was measured:
[1] = molecular target: bovine submaxillary mucin (BSM); assay: BSM ELISA, periodate-sensitive STn binding; conditions: periodate-sensitive STn binding curve, 0 to 100 nM
Protocol: For BSM ELISA analysis, antibodies were screened over a concentration range of 0 to 100 nM on bovine submaxillary mucin (BSM) coated wells. A subset of wells were treated with mild periodate solution before antibody introduction to remove the side chain on terminal sialic acid residues (destroying the STn antigen). Optical densities of periodate and non-periodate-treated wells were determined and log transformed then fit to a nonlinear regression model to obtain a dose response curve. Optical density values obtained from periodate-treated wells were subtracted from non-periodate treated wells to obtain a periodate-sensitive STn binding curve and corresponding EC50 values.

[2] = test system: Primary patient CRC samples; assay: STn expression in primary patient CRC samples by flow cytometry; format: cell-based; conditions: % of viable CD45−/CD34− population
Text: Primary patient CRC samples were probed by flow cytometry with hSIA101 and two commercial antibodies B72.3 and CC49. All 10 samples tested were STn positive. In the table, % STn is expressed as % of viable CD45−/CD34− population. STn expression was often more robustly identified with hSIA101 than the commercial antibodies.

MDA-MB-231-STn cells = assay: Flow cytometry-based binding analysis; conditions: 0 to 300 nM, read-out: MDA-MB-231-STn cell binding [EC50 (nM)]
Protocol: Humanized IgG1 antibodies, prepared as described above, were subjected to characterization analysis including flow cytometry-based binding analysis with MDA-MB-231-STn cells; binding analysis by BSM ELISA; and glycan array analysis.
In flow cytometry-based binding studies, antibodies were screened over a concentration range of 0 to 300 nM, comparing binding to MDA-MB-231 cells with or without transfection-induced STn expression. Binding was determined using an anti-human APC conjugated secondary antibody and only live cells were considered (based on propidium iodide negative gating). 5,000 events were collected per sample on average. Data were analyzed using FlowJo software (Asland, Oreg.) and resulting APC means and % APC were obtained. […] Human isotype IgG1 antibody was used as an isotype negative control. Epidermal growth factor receptor (LA22, EMD Millipore, Billerica, Mass.) was used as a positive control.

[3] = test system: MDA-MB-231 cells transfected for enhanced expression of STn (STn positive cells); assay: ADC cytotoxicity assay ([…]-GLO); format: cell-based; conditions: MMAE-conjugated ADC versions; 72 hours; kill of STn positive cells
Protocol: MMAE-conjugated ADC versions of hSIA101, hSIA102, and hSIA103 were assessed in an ADC cytotoxicity assay using MDA-MB-231 cells (parental or transfected for enhanced expression of STn). Parental cells were grown in Eagle's Minimum Essential Medium (EMEM) supplemented with 10% FBS, lx Pen/Strep and 45 μg/mL gentamycin. STn positive cells were grown in the same media except with the addition of 1 mg/mL G418 for antibiotic selection. Cells were seeded separately (4,000 cells/well for parental cells or 2,000/well for STn positive cells) in 96-well plates using proper media described above. Cells were grown overnight. After 16-20 hours, cells were treated with varying concentrations of test antibodies in triplicate (50 nM to 0.012 nM) for 72 hours. Then, cells were analyzed using an ADC […]-GLO® luminescent cell viability assay kit (Promega, Madison, Wis.) to determine the amount of ATP present, an indicator of metabolically active cells. The assay uses a single reagent that is added directly to the cultured cells in serum-supplemented medium. The reagent lyses the cells and generates a luminescent signal proportional to the amount of ATP present. Luminescent signals were analyzed and used to calculate the half-maximal inhibitory concentration (IC50) values for each antibody used based on the concentration required to kill STn positive cells at half-maximal levels (see Table 9).

B1: hSIA101 (antibody, V domains shown)
VH: EVQLVQSGAEVKKPGASVKVSCKASGYTFTDHAIHWVRQAPGQGLEWMGYFSPGNDDIKYNEKFRGRVTMTADKSSSTAYMELRSLRSDDTAVYFCKRSLSTPYWGQGTLVTVSS
VL: DIVMTQSPDSLAVSLGERATINCKSSQSLLNRGNHKNYLTWYQQKPGQPPKLLIYWASTRESGVPDRFSGSGSGTDFTLTISSLQAEDVAVYYCQNDYTYPYTFGQGTKVEIK
EC50 [1]: 4.2 nM
% STn+ ([2]; Sample 160093-2, Colon): 22.9%
% STn+ ([2]; Sample 160101-2, Colon): 10%
% STn+ ([2]; Sample 160102-2, Colon): 12.9%
% STn+ ([2]; Sample 160104-2, Colon Met to Liver): 47.8%
% STn+ ([2]; Sample 160115-2, Colon): 5.4%
% STn+ ([2]; Sample 160127-2, Colon): 4.2%
% STn+ ([2]; Sample 160149-1, Colon): 22.7%
% STn+ ([2]; Sample 160151-1, Colon): 19.6%
% STn+ ([2]; Sample 169068-1, Colon): 10.9%
% STn+ ([2]; Sample 1601666, Colon): 29.4%
EC50 (MDA-MB-231-STn cells): 2 nM
IC50 [3]: 5.2 nM
